{"source": "patent US20190031751A1", "about": "(University of Texas, published 2019)", "binders": {"B1": {"name": "E1-34 monoclonal antibody (antibody, V domains shown)", "VH": "EQSVKESGGGLVQPEGSLTLTCTASGFSFSSIYWICWVRQAPGKGLELIACIQITSGITYYASWAKGRFTISKMSSTTVTLQMTSLTVADTATYFCGRRGYGAYAGTGASDLWGPGTLVTVSS", "VL": "ELDLTQTASSVSAAVGGTVTINCQSSQSVYNNNNLAWYQQKPGQPPKLLIYEASKLASGVPSRFKGSGSGTQFTLTISGVQCDDAATYYCAGGYAGYIWAFGGGTEVVVK", "notes": "Rabbit variable domains"}, "B2": {"name": "E1-38 monoclonal antibody (antibody, V domains shown)", "VH": "EQSVKESGGDLVKPEGSLTLTCTASGFSFNSGYWVCWVRQAPGKGLEWIACIYTSSPTGAIYYATWAKGRFTISQTSSTTVTLQMTSLTAADTATYFCTRDNFGGGGSASKLWGPGTLVTISS", "VL": "ELVMTQTPSSKSVPVGGTVTIDCQASESVYSNNRCAWYQQKPGQPPKLLIYYASTLASGVPSRFKCSGSGTRFTLTISGVQCEDAATYYCAGYKTADSDGLGFGGGTEVEIK", "notes": "Rabbit variable domains"}, "B3": {"name": "E2-93 monoclonal antibody (antibody, V domains shown)", "VH": "QSVKESEGGLVQPEGSLTLTCKASGFSFSSYGVNWVRQAPGKGLEWIAYIGLSSEITYYAGWAKGRFTISKPSSTTVTLQMTSLTAADTATYFCVRDLYHSNGLWGPGTLVTISS", "VL": "ELDLTQTPSPVSAAVGGTVTVSCQASESVYNNNRLSWYQQKPGQPPKLLIYYASTLASGVPSRFSGSGSGTQFTLTISSVQCADAATYYCVAFKGYGTDGNAFGGGTEVEIK", "notes": "Rabbit variable domains; also called Mab #93; mAb93"}, "B4": {"name": "E1-142 monoclonal antibody (antibody, V domains shown)", "VH": "QSLEESGGDLVKPGASLTLTCTASGFTINNYNINWVRQAPGKGLEWIARIWNGDGSTYYASWAKGRFTISKTSSTTVTLQMTSLTAADTATYFCARNFNLWGPGTLVTISS", "VL": "ELVLTQTPSPVSAAVGGTVTINCQSSASVYSNNYLSWFQQKPGQPPKPLIYYASTLASGVPSRFKGSGSGTQFTLTISDVQCDDAATYYCAGDYSSSSDMCIFGGGTELEIK", "notes": "Rabbit variable domains"}, "B5": {"name": "E2-135 monoclonal antibody (antibody, V domains shown)", "VH": "QSVKESEGDLVKPGASLTLTCKASGFDFSSSYFMCWVRQAPGRGLEWIACIYTVISRKTYYASWAKGRFTISKTSATTVDLQMTSLTAADTATYFCARSATIERLDLWGQGTLVTVSS", "VL": "ELDLTQTPSPVSAPVGGTVTINCQASESVYNNYRLSWYQQKPGQPPKLLIYAASTLASGVPSRFKGSGSGTQFTLAISDVVCDDAATYYCVGYKSGYIDSIPFGGGTEVVVK", "notes": "Rabbit variable domains; also called mAb135"}}, "data": [{"molecular_target": "T1, Human epidermal growth factor (EGF)-like domain multiple 6 (EGFL6) protein (human, UniProt Q8IUX8 22-553)", "T1 construct": "Secreted protein; also called human EGFL6; recombinant human EGFL6", "T1 sequence (looked up)": "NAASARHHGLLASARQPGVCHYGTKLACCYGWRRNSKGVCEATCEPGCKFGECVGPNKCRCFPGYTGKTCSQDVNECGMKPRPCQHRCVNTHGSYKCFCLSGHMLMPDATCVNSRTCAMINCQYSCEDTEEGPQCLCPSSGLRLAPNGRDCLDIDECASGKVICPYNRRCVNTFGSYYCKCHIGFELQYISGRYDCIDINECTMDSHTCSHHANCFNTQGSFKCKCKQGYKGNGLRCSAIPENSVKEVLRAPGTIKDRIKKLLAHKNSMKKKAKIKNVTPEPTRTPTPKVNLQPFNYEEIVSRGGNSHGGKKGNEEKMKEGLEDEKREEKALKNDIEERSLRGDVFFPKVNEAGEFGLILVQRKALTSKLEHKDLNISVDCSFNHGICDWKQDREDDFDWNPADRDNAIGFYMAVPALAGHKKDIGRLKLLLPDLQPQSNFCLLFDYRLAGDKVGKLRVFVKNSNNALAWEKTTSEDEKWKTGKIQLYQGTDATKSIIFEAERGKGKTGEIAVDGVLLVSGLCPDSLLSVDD", "assay": "ELISA titration on coated EGFL6, 4-parameter curve fit", "method": "Binding of EGFL6 by monoclonal antibodies was first screened by ELISA using supernatants collected from the B cell cultures (FIG. 2). ELISA titration was used to determine the binding affinity of a panel of monoclonal antibodies to EGFL6 antigen (FIG. 3). Binding constants (KD and/or EC 50) of a panel of monoclonal antibodies were estimated using the 4 parameter curve fitting with Prism GraphPad program. For Biacore analysis, all experiments were performed at 25° C. at a flow rate of 45 μl/min. An anti-human IgG Fc antibody (from ThermoFisher, at 50 μg/ml each in acetate buffer, pH 5.0) was immobilized onto a carboxymethyl dextran sensorchip (CMS) using amine coupling procedures based on instruction from the manufacturer. Purified rabbit/human chimeric antibody to be tested was diluted at a concentration of 5 μg/ml in 0.5% P20, HBS-EP buffer and injected on FC2 to reach 500 to 1000 RU. FC1 was used as the reference cell. Specific signals correspond to the difference of signals obtained on FC2 versus FC1. The analyte (recombinant human EGFL6, apparent molecular weight 60 kDa on SDS-PAGE gel) was injected during 90 sec at series of concentration dilutions (100, 50, 25, 12.5, 6.25, and 3.13, 1.56 nM) in 0.5% P20, HBS-EP buffer. These concentrations were prepared from stock solution in 0.5% P20, HBS-EP. The dissociation phase of the analyte was monitored over a 30 minutes period. Running buffer was also injected under the same conditions as a double reference. After each running cycle, both flow cells were regenerated by injecting 20 to 45 μl of Glycine-HCl buffer pH 1.5. Binding KD on EGFL6 was calculated by koff/kₒₙ kinetic rate for each EGFL6 monoclonal antibodies (Table 3).", "units": {"EC50": "ng/mL"}, "values": [{"binder": "B1", "EC50": 0.78}, {"binder": "B2", "EC50": 5.81}, {"binder": "B3", "EC50": 0.37}, {"binder": "B4", "EC50": 1.91}, {"binder": "B5", "EC50": 0.44}]}]}
